Experiments:
[1] = molecular target: the molecule itself; test: gel filtration HPLC and analytical ultracentrifugation (main population 310±10 kDa)
Experimental: FIG. 11. rGPBP and rGPBPΔ26 form very active high molecular weight aggregates. About 300 μg of rGPBP (A) or rGPBPΔ26 (B) were subjected to gel filtration HPLC as described under Material and Methods. Vertical arrowheads and numbers respectively indicate the elution profile and molecular mass (kDa) of the molecular weight standards used. Larger aggregates eluted in the void volume (I), and the bulk of the material present in the samples eluted in the fractionation range of the column as a second peak between the 669 and 158 kDa markers (II). Fifteen microliters of the indicated minute fractions were subjected to SDS-PAGE and Coomasie blue staining. Five microliters of the same fractions were in vitro phosphorylated as described in Materials and Methods, and the reaction stopped by boiling in SDS sample buffer. […]
Gel-filtration HPLC. […] The material was eluted from the column at 0.5 ml/min, monitored at 220 nm and minute fractions collected.
rGPBP and rGPBP-26 exist as very active high molecular weight aggregates. Gel filtration analysis of affinity-purified rGPBP or rGPBPΔ26 yielded two chromatographic peaks (I and II), both displaying higher MW than expected for the individual molecular species, as determined by SDS-PAGE studies (89 kDa and 84 kDa, respectively ) (FIG. 11). […] ATP, and analyzed by immunoblot and autoradiography.

GPpep1 = molecular target: T1, GPpep1
T1 chain: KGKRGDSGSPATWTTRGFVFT

B1: FLAG-tagged recombinant GPBPΔ26 (rGPBPΔ26) (enzyme)
chain: DYKDDDDKMSDNQSWNSSGSEEDPETESGPPVERCGVLSKWTNYIHGWQDRWVVLKNNALSYYKSEDETEYGCRGSICLSKAVITPHDFDECRFDISVNDSVWYLRAQDPDHRQQWIDAIEQHKTESGYGSESSLRRHGSMVSLVSGASGYSATSTSSFKKGHSLREKLAEMETFRDILCRQVDTLQKYFDACADAVSKDELQRDKVVEDDEDDFPTTRSDGDFLHSTNGNKEKLFPHVTPKGINGIDFKGEAITFKATTAGILATLSHCIELMVKREDSWQKRLDKETEKKRRTEEAYKNAMTELKKKSHFGGPDYEEGPNSLINEEEFFDAVEAALDRQDKIEEQSQSEKVRLHWPTSLPSGDAFSSVGTHRFVQKVEEMVQNHMTYSLQDVGGDANWQLVVEEGEMKVYRREVEENGIVLDPLKATHAVKGVTGHEVCNYFWNVDVRNDWETTIENFHVVETLADNAIIIYQTHKRVWPASQRDVLYLSVIRKIPALTENDPETWIVCNFSVDHDSAPLNNRCVRAKINVAMICQTLVSPPEGNQEISRDNILCKITYVANVNPGGWAPASVLRAVAKREYPKFLKRFTSYVQEKTAGKPILF
notes: From pHIL-FLAG-n4'Δ26 in Pichia pastoris, made by deleting the 78-bp exon from pHIL-FLAG-n4'
In the case of B1, the binding result [1] is reported as “binds” and the “trans-phosphorylation activity with GPpep1” value (GPpep1) is reported as “the reduced in-solution auto- and trans-phosphorylation activities displayed by rGPBPΔ26”.

— patent US20030054488A1 (published 2003)
